Experiment [1] has as its target T1, full-length human C1s (produced in house) (human, UniProt P09871 16-688).
T1 construct: Called full-length; Partly auto-cleaved at R422-I423 on blots; also called HuC1s; Hu C1s
T1 sequence: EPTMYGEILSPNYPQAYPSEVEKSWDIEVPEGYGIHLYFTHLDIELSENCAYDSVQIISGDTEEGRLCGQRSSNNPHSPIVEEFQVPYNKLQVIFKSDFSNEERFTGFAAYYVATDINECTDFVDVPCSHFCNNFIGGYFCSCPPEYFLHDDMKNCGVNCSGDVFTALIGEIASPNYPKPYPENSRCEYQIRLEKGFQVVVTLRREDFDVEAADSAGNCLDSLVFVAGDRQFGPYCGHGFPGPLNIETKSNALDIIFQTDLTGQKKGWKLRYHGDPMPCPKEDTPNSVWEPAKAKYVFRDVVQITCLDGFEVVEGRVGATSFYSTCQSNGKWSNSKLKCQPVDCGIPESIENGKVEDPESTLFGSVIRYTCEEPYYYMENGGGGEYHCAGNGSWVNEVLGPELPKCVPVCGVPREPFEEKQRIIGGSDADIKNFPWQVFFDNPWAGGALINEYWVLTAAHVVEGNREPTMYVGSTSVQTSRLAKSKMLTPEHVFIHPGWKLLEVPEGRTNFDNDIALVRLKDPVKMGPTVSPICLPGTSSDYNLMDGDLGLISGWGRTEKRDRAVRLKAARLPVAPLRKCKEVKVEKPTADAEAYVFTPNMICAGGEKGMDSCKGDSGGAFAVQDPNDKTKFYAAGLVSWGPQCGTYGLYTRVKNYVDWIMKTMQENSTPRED
The experiment in a line: BLI (Octet RED96e), antibody on AHC biosensor; C1s Species: Human; R^2 0.9992. The source says: (§1) At last, analyte was dissociated in 1×KB for 360 sec. Data analysis was done using OCTET® Data Analysis HT Software (Sartorius AG).
(Biolayer interferometry detects binding as a change in optical thickness at a sensor tip.)

Experiment [2] concerns the target T2, rat C1s (produced in house) (rat, UniProt Q6P6T1 16-688).
T2 construct: also called RaC1s
T2 sequence: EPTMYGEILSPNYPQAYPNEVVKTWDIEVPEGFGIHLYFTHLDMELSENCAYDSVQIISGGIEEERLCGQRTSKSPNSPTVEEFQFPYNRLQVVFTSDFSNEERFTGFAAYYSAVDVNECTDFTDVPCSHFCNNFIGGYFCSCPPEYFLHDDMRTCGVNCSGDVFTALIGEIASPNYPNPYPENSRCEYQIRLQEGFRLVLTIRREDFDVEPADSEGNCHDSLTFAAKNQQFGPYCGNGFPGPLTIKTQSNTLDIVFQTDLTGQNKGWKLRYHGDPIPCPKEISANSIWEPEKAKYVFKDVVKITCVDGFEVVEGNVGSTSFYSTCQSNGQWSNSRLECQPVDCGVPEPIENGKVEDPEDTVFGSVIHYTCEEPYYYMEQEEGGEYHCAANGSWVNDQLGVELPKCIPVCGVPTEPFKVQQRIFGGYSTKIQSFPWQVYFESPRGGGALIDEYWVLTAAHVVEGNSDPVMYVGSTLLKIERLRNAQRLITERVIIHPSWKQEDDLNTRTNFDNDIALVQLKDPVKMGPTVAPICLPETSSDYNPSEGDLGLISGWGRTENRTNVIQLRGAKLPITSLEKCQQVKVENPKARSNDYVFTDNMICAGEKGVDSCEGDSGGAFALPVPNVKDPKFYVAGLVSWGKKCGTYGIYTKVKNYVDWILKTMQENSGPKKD
The experiment in a line: BLI (Octet RED96e), antibody on AHC biosensor; C1s Species: Rat; R^2 0.9776.
From the text: as §1

Experiment [3] has as its target T3, human C1s proenzyme (CompTech A103) (human, UniProt P09871 16-688).
T3 construct: also called proenzyme human C1s (native C1s)
T3 sequence (looked up): T1 sequence
The experiment in a line: BLI (Octet RED96e), antibody on AHC biosensor; HuC1s Form: Proenzyme; R^2 0.9990. The procedure:
Bio-Layer Interferometry technology was used for anti-C1s antibody affinity measurement and binding kinetics determinations with OCTET® RED96e system (Sartorius AG). Pre-hydrated Anti-Human IgG Fc Capture (AHC) biosensors were first equilibrated in 1×KB (Kinetic Buffer, 1×PBS pH 7.4+0.02% Tween-20+0.1% BSA) for 120 sec for the first baseline, followed by loading with […] anti-C1s antibody (2-7, FIG. 3A; 2-8, FIG. 3B; hz2-7(H1L2), FIG. 3C; hz2-8(H1L2 G80A/T82A, FIG. 3D) onto AHC biosensors for 240 sec. Then, the second baseline signal was established for 120 sec before association with various concentrations of active human C1s (CompTech A104) for 240-360 sec. At last, analyte was dissociated in 1×KB for 360 sec. Anti-C1s antibodies 2-7 and 2-8 were also analyzed against human C1s proenzyme (CompTech A103) (data not shown). Data analysis was carried out using OCTET® Data Analysis HT Software (Sartorius AG). KD, kₒₙ, koff and R² values were calculated for each antibody and target combination, as summarized in FIG. 3E showing high affinity binding with KD values in the low nanomolar to picomolar range.

Experiment [4] concerns the target T1, full-length human C1s (produced in …). Nature of the experiment: BLI (Octet RED96e), antibody on AHC biosensor; C1s Species: Human; R^2 0.9983.
From the text: as §1

By Kd is commonly meant the free concentration of one partner at which half of the binding sites on the other are occupied at equilibrium, for simple one-to-one binding. The koff is the rate constant with which the complex falls apart. In general, kon refers to a measure of how fast the partners come together.

B1: Anti-C1s antibody 2-8 (antibody, V domains shown)
VH: EVQLQQSGAELVRPGALVKLSCKASGFNIKEYYMHWVKQRPEQGLEWIGWIDPENGDTIYDPKFQGKASITADTSSNTAYLQLSSLTSEDTAVYYCARSRLFFAYWGQGTLVTVSA
VL: DIVMTQSHKFMSTSVGDRVSFTCKASQDVRTAVDWYQQKPGQSPKLLIYSASYRYTGVPDRFTGTGSGTDFTFTISSVQAEDLAVYFCQQQYTTPYTFGGGTKLEIKT
notes: the HC/LC entries may hold it too; also called clone 2-8
Take B1: in experiment [1], the dissociation constant (Kd) was 0.032 nM, the dissociation rate constant (koff) was 0.00012 s⁻¹ and the kon is 3.8e+06 M⁻¹ s⁻¹. In experiment [2], the dissociation constant Kd worked out at 17 nM, the off-rate constant (koff) turned out to be 0.0012 s⁻¹ and the on-rate constant (kon) was found to be 68000 M⁻¹ s⁻¹. In experiment [3], the Kd worked out at 0.49 nM, the dissociation rate constant (koff) stood at 0.00012 s⁻¹ and the on-rate constant (kon) turned out to be 250000 M⁻¹ s⁻¹.

B2: Anti-C1s antibody 2-7 (antibody, human IgG1, kappa, V domains shown)
VH: EVKLEESGGGLVPPGGSMKLSCVASGFTFSNYFMNWVRQSPEKGLEWVAEIRLKFTNYATHYAESVEGRFTISRDDSKSSVYLQMNNLRAEDTGIYYCTRDYGSRNGYFDYWGQGTTLTVSS
VL: DIVMTQAAPSVPVTPGESVSISCRSSKSLLHSNGNTFLYWFLQRPGQSPQLLIYRMSNLASGVPDRFSGSGSGTAFTLRVSRVEAEDVGIYYCMQHLEYPYTFGGGTKLEIKT
notes: the HC/LC entries may hold it too; also called clone 2-7
In experiment [4], B2 gave a dissociation constant Kd of 0.012 nM, a dissociation rate constant (koff) of 3.9e-05 s⁻¹ and a kon of 3.2e+06 M⁻¹ s⁻¹.
